Data from US10688197B2, “Non-alcoholic fatty liver regulator 14-3-3 protein” (Korea University Research and Business Foundation, priority 2015, dated 2020).

Key:
[1] = target: T1, PPARγ2 S273A mutant (Homo sapiens, UniProt P37231, S273A); assay: aP2 promoter luciferase reporter with PPARγ2 S273A mutant in HEK-293T cells; format: cell-based; conditions: overexpression of 14-3-3β or 14-3-3γ, FIG. 4C/4D
T1 construct: expressed in transfected cells; host or cells: HEK-293T
T1 sequence (P37231 1-505 S273A): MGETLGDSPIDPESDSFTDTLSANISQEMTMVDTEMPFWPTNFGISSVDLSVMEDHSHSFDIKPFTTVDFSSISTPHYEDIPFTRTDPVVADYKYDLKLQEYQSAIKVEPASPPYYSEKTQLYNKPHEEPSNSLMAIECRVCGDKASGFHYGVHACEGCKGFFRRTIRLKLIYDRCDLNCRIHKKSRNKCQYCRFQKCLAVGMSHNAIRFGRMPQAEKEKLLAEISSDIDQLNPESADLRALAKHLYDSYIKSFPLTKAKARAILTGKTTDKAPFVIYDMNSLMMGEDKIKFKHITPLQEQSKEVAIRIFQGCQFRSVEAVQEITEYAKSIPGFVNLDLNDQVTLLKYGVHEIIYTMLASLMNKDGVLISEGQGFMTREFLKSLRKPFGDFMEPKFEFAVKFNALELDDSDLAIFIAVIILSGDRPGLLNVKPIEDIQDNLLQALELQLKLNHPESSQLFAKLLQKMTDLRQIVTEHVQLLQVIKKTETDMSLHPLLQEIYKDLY
Description: In addition, HEK-293T cells were seeded in a 12-well plate at a density of 1×10^5 cells per each well, and then transfected with an aP2 promoter construct (0.5 μg), Flag-PPARγ2 (S112A) DNA (0.5 μg) or Flag-PPARγ2 (S273A) DNA (0.5 μg), and mGST-14-3-3β DNA (0.5 μg) or mGST-14-3-3γ DNA (0.5 μg) using an E-fection plus reagent (Lugen). A ratio of DNA to the E-fection plus reagent was 1:2, and this method was performed according to a manufacturer's manual. The corresponding cells were washed with ice-cold PBS, and lysed using 80 μl/well of a reporter lysis buffer (Promega, Madison, Wis.), and the lysed cells were centrifuged at 10,000×g and 4° C. for 10 minutes to collect a supernatant, and luciferase activity was measured. As an instrument, Luminometer 20/20n (Turner Biosystems, Sunnyvale, Calif.) was used. For normalization, the cells were cotransfected with pSV40-β-galactosidase. For the collected supernatant, β-galactosidase activity was measured and the luciferase activity was revised, and the obtained values were plotted. At this time, a β-galactosidase enzyme analysis system (Promega, Madison, Wis.) was used, and analysis was performed using a DU530 spectrophotometer (Beckman Instruments, Palo Alto, Calif.).

[2] = target: T2, PPARγ2 deletion mutant (139-505) (Homo sapiens, UniProt P37231); assay: GST-pull down assay with PPARγ2 deletion mutant (139-505); format: binding; conditions: FIG. 3B/3C
T2 construct: Flag-PPARγ2 (139-505) DNA (4 μg); expressed in transfected cells; host or cells: HEK-293T
T2 sequence (P37231 139-505): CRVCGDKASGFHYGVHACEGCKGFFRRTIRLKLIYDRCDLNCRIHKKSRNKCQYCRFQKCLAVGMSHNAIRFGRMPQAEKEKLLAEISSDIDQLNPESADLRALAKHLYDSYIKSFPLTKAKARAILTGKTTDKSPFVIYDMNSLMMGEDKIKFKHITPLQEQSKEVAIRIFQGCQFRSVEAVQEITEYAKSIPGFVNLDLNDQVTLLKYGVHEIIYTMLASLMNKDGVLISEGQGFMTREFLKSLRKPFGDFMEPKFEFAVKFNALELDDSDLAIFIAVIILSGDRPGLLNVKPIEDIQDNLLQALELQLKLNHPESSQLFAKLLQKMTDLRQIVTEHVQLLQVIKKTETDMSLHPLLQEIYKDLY
Description: HEK-293T cells were seeded in a 100 mm plate at a density of 2×10^6 cells per each well, and then transfected with Flag-PPARγ2 (1-505) DNA (4 μg), Flag-PPARγ2 (1-310) DNA (4 μg), Flag-PPARγ2 (139-505) DNA (4 μg), and mGST-14-3-3β (4 μg) or mGST-14-3-3γ (4 μg) using an E-fection plus reagent (Lugen). For Flag-PPARγ2 (1-310) DNA and Flag-PPARγ2 (139-505) DNA, DNA fragments amplified through polymerase chain reaction (PCR) were cloned into a pCMV-3Tag-1 vector using restriction enzymes XhoI and ApaI. A ratio of DNA to the E-fection plus reagent was 1:2, and this method was performed according to a manufacturer's manual. The corresponding cells were washed with ice-cold PBS and lysed using 500 μl/well of a lysis buffer (150 mM NaCl, 1 mM EDTA, 1% Nonidet P-40, 5% glycerol, 25 mM tris-HCl, pH 7.5, protease inhibitor added), and the lysed cells were centrifuged at 10,000×g and 4° C. for 10 minutes to extract proteins. Thereafter, 1,000 μg of the proteins was reacted with 20 μl of glutathione Sepharose 4B beads (GE Healthcare, Buckinghamshire, UK) for 6 hours, and then washing of the beads with 1 ml of ice-cold PBS was repeated 5 times, and the beads were boiled at 100° C. for 10 minutes, followed by 10% SDS-PAGE gel separation and western blotting. A ratio of GST antibodies (Santa Cruz) to Flag antibodies (Santa Cruz) was 1:3000. […]

| Substance | transcriptional activity of PPARγ2 S273A mutant [1] | binding to PPARγ2 deletion mutant (139-505) [2] |
| --- | --- | --- |
| 14-3-3β: 14-3-3 isoform protein overexpressed by DNA transfection; increases the transcriptional activity of PPARγ2 by binding to PPARγ2 | no change | bound |
| 14-3-3γ: 14-3-3 isoform protein overexpressed by DNA transfection; decreases the transcriptional activity of PPARγ2; proposed active ingredient | no change | bound |
